# Measurements as given in patent US10428140B2, “Anti-EphA4 antibody” (EISAI R&D MANAGEMENT CO., LTD., priority 2015, dated 2019).
# B1: antibody A: mouse anti-EphA4 monoclonal antibody, IgG1/κ; heavy chain variable region SEQ ID NO: 11, light chain variable region SEQ ID NO: 13 (antibody, listed as Mus musculus, V domains shown)
# VH: QIQLVQSGPELKKPGETVKISCKASGYTFTDYSMHWVKQAPGKGLKWMGWINTETGEPTYADDFKGRFAFSLETSASTAYLQINNLKNEDTATYFCARIPLYYYGSRYWYFDVWGAGTTVTVSS
# VL: DIQMTQSPASLSVSVGETVTITCRASENIYRNLAWYQQKQGKSPQLLVYAATNLADGVPSRFSGSGSGTQYSLKINSLQSEDFGSYYCQHFWGTPWTFGGGTKLEIK
# Test system: mouse ES cell derived-motor neuron / variant human SOD1 (G93A)-expressing astrocyte coculture
# Experiment: Motor neuron protection in in vitro ALS model derived from mouse ES cells
# Type: cell-based
# Conditions: antibody A 10, 30, 100 nM; EphA4-Fc 3, 10, 30 nM; KYL peptide 1, 3, 10 μM; 2 days
# Protocol: Mouse ES cells were maintained and cultured according to the following steps. Mouse ES cells (129×1/SvJ) cryopreserved at −80° C. were thawed in a thermostat bath and then diluted with a mouse ES cell culture medium (KnockOut(TM) DMEM (Gibco) containing 10% fetal bovine serum (FBS, Gibco), 0.1 mM β-mercaptoethanol (Gibco), 1 mM sodium pyruvate (Invitrogen), 2 mM L-glutamine (Invitrogen), 1% nonessential amino acids (Invitrogen), 100 units/mL penicillin-100 μg/mL streptomycin (Invitrogen), and 1000 units/mL ESGRO(R) leukemia inhibitory factor (Merck Millipore)) warmed to 37° C. Each cell suspension was centrifuged (1500 rpm, 3 min, room temperature), followed by the removal of the supernatant. The cells were suspended in a fresh medium, then transferred to a culture dish with feeder cells inoculated in advance, and maintained and cultured in a CO2 incubator (5% CO2, 37° C.).
# Astrocytes were established from a mouse newborn and maintained and cultured according to the following steps. A two-day-old wild-type mouse newborn (C57BL/6JJmsSlc (Japan SLC)) and a hybrid mouse newborn of a wild-type mouse and a variant human SOD1 (G93A) Tg-(B6.Cg-Tg(SOD1_G93A)1Gur/J ([…])) mouse were each euthanized by inhalation anesthesia with isoflurane (Intervet) or decapitation. […]
molecule,measurement,value
B1,suppression of motor neuron death / motor neuron protective effect (in words),"suppressed, in a concentration-dependent manner"
